One data set concerns GPR103. The conditions noted are these: cited from earlier work. An excerpt:
GPR103 is a Gi/o- and Gq-coupled GPCR expressed in the adrenal gland and various regions of the brain such as the hypothalamus, which plays a crucial role in the regulation of energy metabolism and appetite control. […] In this study, we focused on the structural analysis complexed with Gq. To facilitate expression and purification, we truncated the C-terminal residues after G366 of human GPR103. […] (Supplementary Fig. 1a–d and Supplementary Table 1). […] The heptapeptide is conserved from fish to mammals, except for S23 (Supplementary Fig. 6a), consistent with the fact that the S23 side chain poorly interacts with the receptor. The receptor residues interacting with the heptapeptide are highly conserved among the homologs (Supplementary Fig. 6b, c). Accordingly, this observed heptapeptide-TMD interaction plays a key role in evolutionarily conserved GPR103 activation.

The conditions of data set [1]: cited from earlier work. An excerpt: GPR103 is a Gi/o- and Gq-coupled GPCR expressed in the adrenal gland and various regions of the brain such as the hypothalamus, which plays a crucial role in the regulation of energy metabolism and appetite control. QRFP and GPR103 are implicated in a variety of physiological functions ranging from the modulation of feeding behavior to the regulation of energy homeostasis, cardiovascular function, and bone formation. ... || In the current study, we have not only elucidated the architecture of the receptor but also shed light on the structure of QRFP itself, potentially paving the way for the modulation of QRFP-neurons (Q-neurons)[46]. […] The QRFP-induced hibernation-like state (QIH) provides an unusual model to study metabolic suppression for therapeutic purposes, as well as artificial hibernation. QIH through pharmacogenetics[47] or optogenetics[48] is achievable in murine models, ...

In data set [2] the target is GPR103 E203^ECL2A (human) (UniProt Q96P65).
In data set [3] the target is GPR103 E297^6.59A (human) (UniProt Q96P65).
The target of data set [4] is GPR103 Q125^3.32 mutant (human) (UniProt Q96P65).
Data set [5] concerns the target GPR103 Q318^7.39A (human) (UniProt Q96P65).
Data set [6] has as its target GPR103 T102^2.61 mutant (human) (UniProt Q96P65).
Data set [7] addresses GPR103 alanine mutant of F11^N-term (human) (UniProt Q96P65).
Data set [8] deals with GPR103 alanine mutant of F25^N-term (human) (UniProt Q96P65).
Data set [9] deals with GPR103 alanine mutant of Y29^N-term (human) (UniProt Q96P65).
The target in a further data set is GPR103 C98^2.57A (human) (UniProt Q96P65).
GPR103 C98^2.57A (human), sequence (Q96P65 whole entry C98A): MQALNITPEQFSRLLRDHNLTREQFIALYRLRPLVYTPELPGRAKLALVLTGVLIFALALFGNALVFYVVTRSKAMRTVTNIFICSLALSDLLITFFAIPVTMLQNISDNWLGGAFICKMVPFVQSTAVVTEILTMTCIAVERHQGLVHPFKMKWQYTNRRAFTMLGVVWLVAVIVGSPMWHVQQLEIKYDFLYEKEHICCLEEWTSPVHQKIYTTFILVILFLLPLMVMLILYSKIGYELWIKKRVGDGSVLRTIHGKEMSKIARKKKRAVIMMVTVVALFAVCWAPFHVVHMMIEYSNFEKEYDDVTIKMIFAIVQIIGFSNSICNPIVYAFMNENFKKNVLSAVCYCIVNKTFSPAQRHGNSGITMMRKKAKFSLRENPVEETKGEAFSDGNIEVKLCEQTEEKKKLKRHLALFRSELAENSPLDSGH

GPR103 Q318^7.39A (human), sequence (Q96P65 whole entry Q318A): as the sequence (Q96P65 whole entry C98A) above, with A98C, Q318A counted along it
GPR103 T102^2.61 mutant (human), sequence (Q96P65 whole entry, change not shown): as the sequence (Q96P65 whole entry C98A) above, with A98C counted along it
GPR103 Q125^3.32 mutant (human), sequence (Q96P65 whole entry, change not shown): as the sequence (Q96P65 whole entry C98A) above, with A98C counted along it
GPR103 E203^ECL2A (human), sequence (Q96P65 whole entry E203A): as the sequence (Q96P65 whole entry C98A) above, with A98C, E203A counted along it
GPR103 alanine mutant of F25^N-term (human), sequence (Q96P65 other isoform, or with tags, fused parts or gaps mutant): as the sequence (Q96P65 whole entry C98A) above, with F25A, A98C counted along it
GPR103 E297^6.59A (human), sequence (Q96P65 whole entry E297A): as the sequence (Q96P65 whole entry C98A) above, with A98C, E297A counted along it
GPR103 alanine mutant of F11^N-term (human), sequence (Q96P65 other isoform, or with tags, fused parts or gaps mutant): as the sequence (Q96P65 whole entry C98A) above, with F11A, A98C counted along it
GPR103 alanine mutant of Y29^N-term (human), sequence (Q96P65 other isoform, or with tags, fused parts or gaps mutant): as the sequence (Q96P65 whole entry C98A) above, with Y29A, A98C counted along it

In the case of “GGFSFRF [C-terminal heptapeptide, C-terminal heptapeptide of QRFP26 (GGFSFRF)]”, in the data set on GPR103 (ref [27],[28]), the “GPR103 activation (in words)” value was “sufficient to activate GPR103” and the “affinity (in words)” value is on record as “reduced affinity”.
Regarding “EDEGSEATGFLPAAGEKTSGPLGNLAEELNGYSRKKGGFSFRF [QRFP43, pyroglutamylated RF-amide peptide, 43-amino acid RF-amide peptide with a pyroglutamylated N-terminus]”, the “activity for GPR103 (in words)” value in the data set with GPR103 (ref [5]–[7]) is “specific activity for GPR103”. Moreover, in data set [1] (QRFP administration, ref [11]), the “food intake and fat mass (in words)” value was “increased food intake and fat mass”; the “glucose-induced insulin release (in words)” value is “reducing glucose-induced insulin release”; the “osteopenia and nociception (in words)” value was “may also cause osteopenia and facilitate nociception”. The “orexigenic activity (in words)” value in data set [1] (ref [5]–[7]) is “orexigenic activity”. In addition, the “hypothermia and metabolism (in words)” value in [1] (ref [46]) was “capable of inducing an extended state of hypothermia and reduced metabolism”.
For “QRFP26 (from UniProt P83859 91-136) (peptide)”, the QRFP26-induced activation of GPR103, TGFα shedding assay (reduction of potency against wild type) is 3 fold in data set [2]; 10 fold in data set [3]; > 3 fold in [4]; > 3 fold in data set [5]; > 3 fold in data set [6]; 10 fold in data set [7]. In addition, the QRFP26-induced activation of GPR103, TGFα shedding assay (reduction of potency against wild type) in [8] was 10 fold; in [9], 10 fold; in the data set with GPR103 C98^2.57A (human), 3 fold.

The values are drawn from PMC11187126, “Structure and dynamics of the pyroglutamylated RF-amide peptide QRFP receptor GPR103” (Nature Communications, 2024).
